Measured values from publication PMC10786891, “Massively parallel profiling of RNA-targeting CRISPR-Cas13d”.

T1: EsCas13d, nuclease-dead (Eubacterium siraeum, UniProt B0MS50, R295A;H300A;R849A;H854A)
T1 sequence: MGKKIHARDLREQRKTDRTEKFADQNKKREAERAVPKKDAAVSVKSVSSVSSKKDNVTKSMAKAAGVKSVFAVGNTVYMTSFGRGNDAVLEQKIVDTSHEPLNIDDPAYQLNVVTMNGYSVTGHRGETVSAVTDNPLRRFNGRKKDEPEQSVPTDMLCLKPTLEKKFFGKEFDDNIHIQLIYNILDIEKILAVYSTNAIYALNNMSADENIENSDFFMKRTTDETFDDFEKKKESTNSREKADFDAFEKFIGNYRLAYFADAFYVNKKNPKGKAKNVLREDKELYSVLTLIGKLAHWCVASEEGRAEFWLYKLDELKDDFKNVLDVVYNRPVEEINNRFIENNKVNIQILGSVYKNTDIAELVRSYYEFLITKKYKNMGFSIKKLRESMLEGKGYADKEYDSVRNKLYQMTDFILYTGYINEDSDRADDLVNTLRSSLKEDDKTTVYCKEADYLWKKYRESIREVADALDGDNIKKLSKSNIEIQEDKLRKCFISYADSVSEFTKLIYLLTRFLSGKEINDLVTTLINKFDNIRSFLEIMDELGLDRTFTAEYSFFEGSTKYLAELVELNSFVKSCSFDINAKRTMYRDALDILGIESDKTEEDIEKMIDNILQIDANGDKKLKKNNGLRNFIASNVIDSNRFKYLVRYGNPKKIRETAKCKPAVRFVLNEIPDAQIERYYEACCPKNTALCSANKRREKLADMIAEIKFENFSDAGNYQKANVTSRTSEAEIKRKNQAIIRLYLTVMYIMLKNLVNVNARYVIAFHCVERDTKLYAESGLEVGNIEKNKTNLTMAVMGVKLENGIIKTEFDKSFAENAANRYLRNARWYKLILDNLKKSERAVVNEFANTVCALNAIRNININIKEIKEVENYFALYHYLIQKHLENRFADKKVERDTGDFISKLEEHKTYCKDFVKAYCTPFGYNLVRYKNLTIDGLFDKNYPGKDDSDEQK

B1: target 1 MT 5'PFS UGG 3'PFS UUG (mixed)
RNA 1: CACCCGUGCAAAAAUGCAGGGGUCUAAAACUGAGCGGAUAACCUCUCUAUGG
RNA 2: GGGAAUGGAUCCACAUCUACGAAUUCUGGCCAUAGAGAGGUUAUCCGCUCAUUGAGAUCGGAAGAGCACACGU
B2: target 1 insU 3' of 18,insU 3' of 12 (mixed)
RNA 1: CACCCGUGCAAAAAUGCAGGGGUCUAAAACUGAGCGGAUAACCUCUCUAUGG
RNA 2: GGGAAUGGAUCCACAUCUACGAAUUCGUACCAUAUGAGAGGUUUAUCCGCUCACCGAGAUCGGAAGAGCACACGU
B3: target 1 MT 5'PFS UCG 3'PFS UCA (mixed)
RNA 1: CACCCGUGCAAAAAUGCAGGGGUCUAAAACUGAGCGGAUAACCUCUCUAUGG
RNA 2: GGGAAUGGAUCCACAUCUACGAAUUCUCGCCAUAGAGAGGUUAUCCGCUCAUCAAGAUCGGAAGAGCACACGU
B4: target 1 MT 5'PFS UCG 3'PFS UCC (mixed)
RNA 1: CACCCGUGCAAAAAUGCAGGGGUCUAAAACUGAGCGGAUAACCUCUCUAUGG
RNA 2: GGGAAUGGAUCCACAUCUACGAAUUCUCGCCAUAGAGAGGUUAUCCGCUCAUCCAGAUCGGAAGAGCACACGU
B5: target 1 MT 5'PFS UGG 3'PFS UUU (mixed)
RNA 1: CACCCGUGCAAAAAUGCAGGGGUCUAAAACUGAGCGGAUAACCUCUCUAUGG
RNA 2: GGGAAUGGAUCCACAUCUACGAAUUCUGGCCAUAGAGAGGUUAUCCGCUCAUUUAGAUCGGAAGAGCACACGU
B6: target 1 MT 5'PFS ACG 3'PFS CGG (mixed)
RNA 1: CACCCGUGCAAAAAUGCAGGGGUCUAAAACUGAGCGGAUAACCUCUCUAUGG
RNA 2: GGGAAUGGAUCCACAUCUACGAAUUCACGCCAUAGAGAGGUUAUCCGCUCACGGAGAUCGGAAGAGCACACGU
B7: target 1 MT 5'PFS GCG 3'PFS UUU (mixed)
RNA 1: CACCCGUGCAAAAAUGCAGGGGUCUAAAACUGAGCGGAUAACCUCUCUAUGG
RNA 2: GGGAAUGGAUCCACAUCUACGAAUUCGCGCCAUAGAGAGGUUAUCCGCUCAUUUAGAUCGGAAGAGCACACGU
B8: target 1 MT 5'PFS GCG 3'PFS UUG (mixed)
RNA 1: CACCCGUGCAAAAAUGCAGGGGUCUAAAACUGAGCGGAUAACCUCUCUAUGG
RNA 2: GGGAAUGGAUCCACAUCUACGAAUUCGCGCCAUAGAGAGGUUAUCCGCUCAUUGAGAUCGGAAGAGCACACGU
B9: target 1 MT 5'PFS GCG 3'PFS UUA (mixed)
RNA 1: CACCCGUGCAAAAAUGCAGGGGUCUAAAACUGAGCGGAUAACCUCUCUAUGG
RNA 2: GGGAAUGGAUCCACAUCUACGAAUUCGCGCCAUAGAGAGGUUAUCCGCUCAUUAAGAUCGGAAGAGCACACGU
B10: target 1 MT 5'PFS GCG 3'PFS UUC (mixed)
RNA 1: CACCCGUGCAAAAAUGCAGGGGUCUAAAACUGAGCGGAUAACCUCUCUAUGG
RNA 2: GGGAAUGGAUCCACAUCUACGAAUUCGCGCCAUAGAGAGGUUAUCCGCUCAUUCAGAUCGGAAGAGCACACGU
B11: target 1 MT 5'PFS UAG 3'PFS CUG (mixed)
RNA 1: CACCCGUGCAAAAAUGCAGGGGUCUAAAACUGAGCGGAUAACCUCUCUAUGG
RNA 2: GGGAAUGGAUCCACAUCUACGAAUUCUAGCCAUAGAGAGGUUAUCCGCUCACUGAGAUCGGAAGAGCACACGU
B12: target 1 MT 5'PFS UAG 3'PFS CUA (mixed)
RNA 1: CACCCGUGCAAAAAUGCAGGGGUCUAAAACUGAGCGGAUAACCUCUCUAUGG
RNA 2: GGGAAUGGAUCCACAUCUACGAAUUCUAGCCAUAGAGAGGUUAUCCGCUCACUAAGAUCGGAAGAGCACACGU
B13: target 1 insA 3' of 13,insA 3' of 4 (mixed)
RNA 1: CACCCGUGCAAAAAUGCAGGGGUCUAAAACUGAGCGGAUAACCUCUCUAUGG
RNA 2: GGGAAUGGAUCCACAUCUACGAAUUCGUACCAUAGAGAGAGUUAUCCGCAUCACCGAGAUCGGAAGAGCACACGU
B14: target 1 MT 5'PFS UAG 3'PFS CUC (mixed)
RNA 1: CACCCGUGCAAAAAUGCAGGGGUCUAAAACUGAGCGGAUAACCUCUCUAUGG
RNA 2: GGGAAUGGAUCCACAUCUACGAAUUCUAGCCAUAGAGAGGUUAUCCGCUCACUCAGAUCGGAAGAGCACACGU
B15: target 1 MT 5'PFS AAC 3'PFS AUA (mixed)
RNA 1: CACCCGUGCAAAAAUGCAGGGGUCUAAAACUGAGCGGAUAACCUCUCUAUGG
RNA 2: GGGAAUGGAUCCACAUCUACGAAUUCAACCCAUAGAGAGGUUAUCCGCUCAAUAAGAUCGGAAGAGCACACGU
B16: target 1 MT 5'PFS AAC 3'PFS AUC (mixed)
RNA 1: CACCCGUGCAAAAAUGCAGGGGUCUAAAACUGAGCGGAUAACCUCUCUAUGG
RNA 2: GGGAAUGGAUCCACAUCUACGAAUUCAACCCAUAGAGAGGUUAUCCGCUCAAUCAGAUCGGAAGAGCACACGU
B17: target 1 MT 5'PFS AAC 3'PFS AUG (mixed)
RNA 1: CACCCGUGCAAAAAUGCAGGGGUCUAAAACUGAGCGGAUAACCUCUCUAUGG
RNA 2: GGGAAUGGAUCCACAUCUACGAAUUCAACCCAUAGAGAGGUUAUCCGCUCAAUGAGAUCGGAAGAGCACACGU
B18: target 1 MT 5'PFS UCC 3'PFS UCG (mixed)
RNA 1: CACCCGUGCAAAAAUGCAGGGGUCUAAAACUGAGCGGAUAACCUCUCUAUGG
RNA 2: GGGAAUGGAUCCACAUCUACGAAUUCUCCCCAUAGAGAGGUUAUCCGCUCAUCGAGAUCGGAAGAGCACACGU
B19: target 1 MT 5'PFS UCC 3'PFS UCA (mixed)
RNA 1: CACCCGUGCAAAAAUGCAGGGGUCUAAAACUGAGCGGAUAACCUCUCUAUGG
RNA 2: GGGAAUGGAUCCACAUCUACGAAUUCUCCCCAUAGAGAGGUUAUCCGCUCAUCAAGAUCGGAAGAGCACACGU
B20: target 1 MT 5'PFS UCC 3'PFS UCC (mixed)
RNA 1: CACCCGUGCAAAAAUGCAGGGGUCUAAAACUGAGCGGAUAACCUCUCUAUGG
RNA 2: GGGAAUGGAUCCACAUCUACGAAUUCUCCCCAUAGAGAGGUUAUCCGCUCAUCCAGAUCGGAAGAGCACACGU
B21: target 1 MT 5'PFS CUC 3'PFS CUA (mixed)
RNA 1: CACCCGUGCAAAAAUGCAGGGGUCUAAAACUGAGCGGAUAACCUCUCUAUGG
RNA 2: GGGAAUGGAUCCACAUCUACGAAUUCCUCCCAUAGAGAGGUUAUCCGCUCACUAAGAUCGGAAGAGCACACGU
B22: target 1 MT 5'PFS CUC 3'PFS CUG (mixed)
RNA 1: CACCCGUGCAAAAAUGCAGGGGUCUAAAACUGAGCGGAUAACCUCUCUAUGG
RNA 2: GGGAAUGGAUCCACAUCUACGAAUUCCUCCCAUAGAGAGGUUAUCCGCUCACUGAGAUCGGAAGAGCACACGU
B23: target 1 MT 5'PFS UCC 3'PFS UCU (mixed)
RNA 1: CACCCGUGCAAAAAUGCAGGGGUCUAAAACUGAGCGGAUAACCUCUCUAUGG
RNA 2: GGGAAUGGAUCCACAUCUACGAAUUCUCCCCAUAGAGAGGUUAUCCGCUCAUCUAGAUCGGAAGAGCACACGU
B24: target 1 C2G,C6G (mixed)
RNA 1: CACCCGUGCAAAAAUGCAGGGGUCUAAAACUGAGCGGAUAACCUCUCUAUGG
RNA 2: GGGAAUGGAUCCACAUCUACGAAUUCGUACCAUAGAGAGGUUAUCGGCUGACCGAGAUCGGAAGAGCACACGU
B25: target 1 MT 5'PFS GUG 3'PFS GUU (mixed)
RNA 1: CACCCGUGCAAAAAUGCAGGGGUCUAAAACUGAGCGGAUAACCUCUCUAUGG
RNA 2: GGGAAUGGAUCCACAUCUACGAAUUCGUGCCAUAGAGAGGUUAUCCGCUCAGUUAGAUCGGAAGAGCACACGU
B26: target 1 MT 5'PFS GAG 3'PFS AAU (mixed)
RNA 1: CACCCGUGCAAAAAUGCAGGGGUCUAAAACUGAGCGGAUAACCUCUCUAUGG
RNA 2: GGGAAUGGAUCCACAUCUACGAAUUCGAGCCAUAGAGAGGUUAUCCGCUCAAAUAGAUCGGAAGAGCACACGU
B27: target 1 MT 5'PFS UUU 3'PFS ACU (mixed)
RNA 1: CACCCGUGCAAAAAUGCAGGGGUCUAAAACUGAGCGGAUAACCUCUCUAUGG
RNA 2: GGGAAUGGAUCCACAUCUACGAAUUCUUUCCAUAGAGAGGUUAUCCGCUCAACUAGAUCGGAAGAGCACACGU
B28: target 1 MT 5'PFS UUU 3'PFS ACC (mixed)
RNA 1: CACCCGUGCAAAAAUGCAGGGGUCUAAAACUGAGCGGAUAACCUCUCUAUGG
RNA 2: GGGAAUGGAUCCACAUCUACGAAUUCUUUCCAUAGAGAGGUUAUCCGCUCAACCAGAUCGGAAGAGCACACGU

The binders below were run against T1, EsCas13d, nuclease-dead (assay: crRNA (strand 1, pre-loaded); Mg2+; 40 mM Tris-HCl pH 7.5, 150 mM NaCl, 6 mM MgCl2, 1 mM DTT, 0.1% Tween-20, 0.2 mg/ml BSA; 25 C; 10 min per concentration, then washed). Conditions: tags: His6-TwinStrep-SUMO cleaved; N-terminal SNAP kept (SNAP-Surface 488); label: 3' end held by stalled T7 RNA polymerase.

Binder | Kd [nM]
B1 | 85 ± 23
B2 | 26.1 ± 1.7
B3 | 38.5 ± 13.5
B4 | 24.5 ± 6.5
B5 | 59 ± 20.5
B6 | 57 ± 18
B7 | 7.85 ± 1
B8 | 5.38 ± 0.505
B9 | 9.05 ± 1.55
B10 | 10.8 ± 2.8
B11 | 22 ± 5
B12 | 22.5 ± 4.5
B13 | 3.4 ± 0.5
B14 | 29.5 ± 12
B15 | 22 ± 8.5
B16 | ~25
B17 | ~60
B18 | 20.6 ± 7.75
B19 | ~20
B20 | 12.1 ± 1.9
B21 | ~39
B22 | ~27
B23 | 23 ± 8
B24 | 4.46 ± 0.23
B25 | 17.9 ± 2.75
B26 | 39 ± 11.5
B27 | 21.2 ± 4.1
B28 | ~46.5
